Measured values: US10500249B2, “Compositions and methods for preventing or treating diseases, conditions, or processes characterized by aberrant fibroblast proliferation and extracellular matrix deposition” (MOERAE MATRIX, INC., priority 2014, dated 2019)

Experiments:
Experiment in all cases: Kinase Profiling Assay
Type in all cases: biochemical
Details in all cases: 100 μM
EphA3 (h) = biological target: T1, EphA3 (h) (Homo sapiens, UniProt P29320)
T1 construct: purchased Millipore
T1 sequence (P29320 21-983): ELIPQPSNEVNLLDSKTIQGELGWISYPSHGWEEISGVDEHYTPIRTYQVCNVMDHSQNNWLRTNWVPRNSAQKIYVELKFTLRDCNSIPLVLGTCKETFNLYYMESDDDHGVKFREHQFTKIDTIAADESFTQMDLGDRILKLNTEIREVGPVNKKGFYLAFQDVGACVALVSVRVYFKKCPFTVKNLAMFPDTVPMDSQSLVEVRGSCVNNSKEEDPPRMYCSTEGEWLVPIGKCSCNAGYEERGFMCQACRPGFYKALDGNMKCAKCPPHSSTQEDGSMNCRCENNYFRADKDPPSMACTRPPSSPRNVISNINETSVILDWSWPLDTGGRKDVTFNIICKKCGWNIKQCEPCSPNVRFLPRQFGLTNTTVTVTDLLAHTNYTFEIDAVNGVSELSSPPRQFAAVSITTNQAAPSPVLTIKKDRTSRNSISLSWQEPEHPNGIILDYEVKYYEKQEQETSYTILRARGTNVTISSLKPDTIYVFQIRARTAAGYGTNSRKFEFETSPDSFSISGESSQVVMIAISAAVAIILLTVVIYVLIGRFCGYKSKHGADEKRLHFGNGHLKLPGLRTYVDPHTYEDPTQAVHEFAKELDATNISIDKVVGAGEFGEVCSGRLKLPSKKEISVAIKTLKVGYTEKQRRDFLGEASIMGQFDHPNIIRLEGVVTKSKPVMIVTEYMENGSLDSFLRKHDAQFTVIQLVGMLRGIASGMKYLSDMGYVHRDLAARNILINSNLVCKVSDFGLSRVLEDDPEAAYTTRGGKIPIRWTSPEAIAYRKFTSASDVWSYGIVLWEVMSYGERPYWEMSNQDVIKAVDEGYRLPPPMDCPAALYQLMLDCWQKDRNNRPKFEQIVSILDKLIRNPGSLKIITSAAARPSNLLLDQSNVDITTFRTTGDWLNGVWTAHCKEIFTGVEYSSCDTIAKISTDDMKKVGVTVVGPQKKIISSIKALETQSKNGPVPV
Procedure, shortened: (§1)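 Kinase inhibition by MK2 inhibitory peptides was profiled radiometrically, with substrate phosphorylation from labeled ATP read by scintillation after capture on a charged filter. Values are relative to 100% activity and measured in duplicate.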

ZAP-70 (h) = biological target: T2, ZAP-70 (h) (Homo sapiens, UniProt P43403)
T2 sequence (P43403 1-619): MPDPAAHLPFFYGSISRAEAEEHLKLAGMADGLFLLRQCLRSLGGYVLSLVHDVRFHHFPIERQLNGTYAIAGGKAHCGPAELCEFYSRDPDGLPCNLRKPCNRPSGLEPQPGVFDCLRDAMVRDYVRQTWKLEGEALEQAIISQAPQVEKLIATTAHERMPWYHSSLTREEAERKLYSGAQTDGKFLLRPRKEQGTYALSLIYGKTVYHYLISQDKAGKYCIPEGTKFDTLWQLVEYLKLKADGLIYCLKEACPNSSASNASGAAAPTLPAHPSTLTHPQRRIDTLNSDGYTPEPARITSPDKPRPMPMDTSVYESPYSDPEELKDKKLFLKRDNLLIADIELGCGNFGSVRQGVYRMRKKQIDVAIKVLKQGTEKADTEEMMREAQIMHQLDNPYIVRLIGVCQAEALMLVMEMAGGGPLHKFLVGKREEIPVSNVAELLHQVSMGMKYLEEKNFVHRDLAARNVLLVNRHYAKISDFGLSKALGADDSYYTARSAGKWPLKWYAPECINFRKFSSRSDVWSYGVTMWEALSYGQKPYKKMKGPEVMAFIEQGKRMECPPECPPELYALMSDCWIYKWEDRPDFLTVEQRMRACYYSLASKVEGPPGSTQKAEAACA
Procedure, shortened: as §1

EGFR (h) = biological target: T3, EGFR (h) (Homo sapiens, UniProt P00533)
T3 construct: purchased Millipore
Procedure, shortened: as §1

PDGFRα (V561D) (h) = biological target: T4, PDGFRα (V561D) (h) (Homo sapiens, UniProt P16234, V561D)
T4 construct: purchased Millipore
Procedure, shortened: as §1

Plk3 (h) = Plk3 (h) (Homo sapiens, UniProt Q9H4B4)
Procedure, shortened: as §1

ErbB4 (h) = ErbB4 (h) (Homo sapiens, UniProt Q15303)
Procedure, shortened: as §1

Chain of Plk3 (h) (Q9H4B4 whole entry): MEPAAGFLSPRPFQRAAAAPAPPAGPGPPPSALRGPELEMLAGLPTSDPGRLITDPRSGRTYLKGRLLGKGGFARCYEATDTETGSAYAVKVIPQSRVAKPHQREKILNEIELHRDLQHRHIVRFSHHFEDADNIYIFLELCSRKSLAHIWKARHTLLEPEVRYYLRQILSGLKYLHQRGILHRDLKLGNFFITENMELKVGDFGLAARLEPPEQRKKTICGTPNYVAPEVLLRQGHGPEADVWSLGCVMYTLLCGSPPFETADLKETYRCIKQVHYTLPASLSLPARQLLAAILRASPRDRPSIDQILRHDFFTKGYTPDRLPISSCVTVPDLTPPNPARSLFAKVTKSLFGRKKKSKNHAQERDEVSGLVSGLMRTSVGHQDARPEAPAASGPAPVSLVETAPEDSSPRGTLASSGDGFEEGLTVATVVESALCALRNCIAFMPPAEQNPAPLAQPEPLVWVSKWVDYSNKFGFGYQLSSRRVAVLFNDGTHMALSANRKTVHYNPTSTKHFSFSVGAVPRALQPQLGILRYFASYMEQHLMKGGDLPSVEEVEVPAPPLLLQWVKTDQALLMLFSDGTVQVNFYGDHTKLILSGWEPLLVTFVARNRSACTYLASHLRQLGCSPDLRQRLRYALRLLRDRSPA
Chain of ErbB4 (h) (Q15303 26-1308): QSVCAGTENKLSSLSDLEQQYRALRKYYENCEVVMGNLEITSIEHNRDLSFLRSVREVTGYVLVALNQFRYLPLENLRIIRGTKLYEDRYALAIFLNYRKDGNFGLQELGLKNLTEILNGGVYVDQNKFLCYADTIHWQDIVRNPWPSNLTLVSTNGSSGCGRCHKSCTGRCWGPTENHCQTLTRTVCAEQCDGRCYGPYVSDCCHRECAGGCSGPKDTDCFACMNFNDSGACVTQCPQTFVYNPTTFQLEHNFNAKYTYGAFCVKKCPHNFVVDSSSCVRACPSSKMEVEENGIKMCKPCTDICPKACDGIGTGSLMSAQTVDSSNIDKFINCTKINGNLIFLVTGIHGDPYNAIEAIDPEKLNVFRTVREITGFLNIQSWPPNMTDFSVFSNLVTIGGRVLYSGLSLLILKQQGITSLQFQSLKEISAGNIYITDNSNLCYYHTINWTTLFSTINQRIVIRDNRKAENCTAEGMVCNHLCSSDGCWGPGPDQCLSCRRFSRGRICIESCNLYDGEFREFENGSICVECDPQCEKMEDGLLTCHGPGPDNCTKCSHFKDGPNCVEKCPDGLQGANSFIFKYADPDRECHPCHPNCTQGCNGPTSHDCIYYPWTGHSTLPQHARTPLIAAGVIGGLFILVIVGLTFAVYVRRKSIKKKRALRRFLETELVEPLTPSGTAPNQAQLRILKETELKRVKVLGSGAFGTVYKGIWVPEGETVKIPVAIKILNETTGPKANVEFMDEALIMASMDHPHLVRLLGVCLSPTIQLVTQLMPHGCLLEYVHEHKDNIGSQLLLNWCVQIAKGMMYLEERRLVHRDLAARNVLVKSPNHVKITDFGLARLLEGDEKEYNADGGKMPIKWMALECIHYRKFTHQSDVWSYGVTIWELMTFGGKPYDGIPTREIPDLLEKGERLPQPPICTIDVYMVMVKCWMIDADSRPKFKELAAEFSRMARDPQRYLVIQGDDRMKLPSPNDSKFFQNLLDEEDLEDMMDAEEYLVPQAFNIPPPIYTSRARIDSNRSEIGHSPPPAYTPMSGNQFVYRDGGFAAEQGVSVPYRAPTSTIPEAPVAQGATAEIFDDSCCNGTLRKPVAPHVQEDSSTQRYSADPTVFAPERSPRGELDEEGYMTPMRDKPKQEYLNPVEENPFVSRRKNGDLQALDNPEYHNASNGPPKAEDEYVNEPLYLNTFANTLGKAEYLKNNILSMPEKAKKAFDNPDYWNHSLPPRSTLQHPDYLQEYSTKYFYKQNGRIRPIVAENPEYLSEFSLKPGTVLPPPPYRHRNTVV
T4 sequence (P16234 24-1089 V561D): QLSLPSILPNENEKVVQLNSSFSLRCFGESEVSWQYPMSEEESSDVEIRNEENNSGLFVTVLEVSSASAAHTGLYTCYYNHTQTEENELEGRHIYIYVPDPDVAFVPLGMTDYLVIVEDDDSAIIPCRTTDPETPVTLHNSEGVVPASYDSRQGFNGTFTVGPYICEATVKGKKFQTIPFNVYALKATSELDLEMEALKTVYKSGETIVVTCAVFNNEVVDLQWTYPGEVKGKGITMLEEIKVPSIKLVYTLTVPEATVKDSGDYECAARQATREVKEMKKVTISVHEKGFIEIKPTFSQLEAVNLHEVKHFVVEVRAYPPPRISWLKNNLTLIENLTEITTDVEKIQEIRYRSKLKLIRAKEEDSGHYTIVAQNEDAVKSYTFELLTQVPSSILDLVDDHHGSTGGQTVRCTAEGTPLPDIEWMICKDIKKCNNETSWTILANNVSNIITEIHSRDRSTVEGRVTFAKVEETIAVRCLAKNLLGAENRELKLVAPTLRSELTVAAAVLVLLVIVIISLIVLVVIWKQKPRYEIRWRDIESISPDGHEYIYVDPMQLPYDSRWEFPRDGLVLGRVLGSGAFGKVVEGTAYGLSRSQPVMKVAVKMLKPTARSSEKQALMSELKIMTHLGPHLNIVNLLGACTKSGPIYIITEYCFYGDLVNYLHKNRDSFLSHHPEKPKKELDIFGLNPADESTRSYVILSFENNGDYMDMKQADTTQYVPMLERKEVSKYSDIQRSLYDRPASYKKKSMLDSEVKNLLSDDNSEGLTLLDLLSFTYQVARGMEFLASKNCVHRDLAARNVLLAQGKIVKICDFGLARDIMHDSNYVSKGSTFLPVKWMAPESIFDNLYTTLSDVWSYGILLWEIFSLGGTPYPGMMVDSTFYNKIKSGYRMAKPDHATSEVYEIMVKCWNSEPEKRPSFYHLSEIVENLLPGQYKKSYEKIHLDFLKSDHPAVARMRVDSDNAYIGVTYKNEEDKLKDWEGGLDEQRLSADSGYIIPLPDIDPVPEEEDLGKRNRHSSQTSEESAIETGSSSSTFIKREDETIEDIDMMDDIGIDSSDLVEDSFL

Sequence | % activity (EphA3 (h)) [%] | % activity (ZAP-70 (h)) [%] | % activity (EGFR (h)) [%] | % activity (PDGFRα (V561D) (h)) [%] | % activity (Plk3 (h)) [%] | % activity (ErbB4 (h)) [%]
FAKLAARLYRKALARQLGVAA [MMI-0300] | 6 | 75 | 21 | 82 | 127 | 40
HRRIKAWLKKIKALARQLGVAA (Mammalian) [MMI-0500] | 33 | 1 | −1 | 146 | 122 | 2
KAFAKLAARLYRKALARQLGVAA [MMI-0400] | 12 | 33 | 16 | 100 | 129 | 0
YARAAARQARAKALNRQLGVA (Mammalian) [MMI-0200] | – | 58 | 83 | – | – | 82
